From patent US20180037644A1 (Pfizer, published 2018)

Legend:
human IL-33 (mm2) = biological target: T1, human IL-33 (mm2) (human, UniProt O95760 112-270); experiment: SPR, biotinylated IL-33 on streptavidin sensor, Fab in solution
T1 construct: Variant in which all four cysteine residues are serine; the entry carries an N-terminal Met and a C-terminal His6; Biotinylated in some assays; also called hIL-33 (mm2); huIL-33 (mm2)
T1 chain: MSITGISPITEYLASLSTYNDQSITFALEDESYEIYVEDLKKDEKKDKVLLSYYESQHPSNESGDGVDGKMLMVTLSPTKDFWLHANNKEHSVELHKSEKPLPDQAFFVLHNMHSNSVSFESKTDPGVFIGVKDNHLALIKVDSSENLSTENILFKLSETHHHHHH
Protocol: Fab fragment affinity was measured by two methods, surface plasmon resonance using a BIAcore instrument, with either Fab or IL-33 captured on the chip, and solution equilibrium affinity measurements using a KinExA instrument, with both Fab and IL-33 in solution.
Surface plasmon resonance experiments were conducted in two formats.

IL-18 = biological target: T2, IL-18 (UniProt Q14116 37-193); experiment: SPR (Biacore T200), Fab captured on the chip, cytokine injected
T2 sequence (looked up): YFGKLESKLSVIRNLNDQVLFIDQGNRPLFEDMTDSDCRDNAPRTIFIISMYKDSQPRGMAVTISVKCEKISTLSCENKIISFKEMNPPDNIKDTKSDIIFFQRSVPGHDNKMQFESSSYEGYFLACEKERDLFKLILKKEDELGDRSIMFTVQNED
Description: (§1) The panel of cytokines included IL-1α, IL-1β, IL-18, IL-36α, and IL-36γ.

IL-36α = biological target: T3, IL-36α (UniProt Q9UHA7 6-158); experiment: as above
T3 sequence (looked up): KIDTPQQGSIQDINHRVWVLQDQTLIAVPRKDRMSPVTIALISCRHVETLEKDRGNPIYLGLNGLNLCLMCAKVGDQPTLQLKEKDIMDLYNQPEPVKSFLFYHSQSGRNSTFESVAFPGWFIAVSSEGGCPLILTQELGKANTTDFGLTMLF
Description: as §1

IL-36γ = biological target: T4, IL-36γ (UniProt Q9NZH8 18-169); experiment: as above
T4 sequence (looked up): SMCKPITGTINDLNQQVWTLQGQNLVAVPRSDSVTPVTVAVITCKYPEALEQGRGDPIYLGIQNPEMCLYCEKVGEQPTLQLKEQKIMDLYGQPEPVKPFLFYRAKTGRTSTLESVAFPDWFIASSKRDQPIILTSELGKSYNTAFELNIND
Description: as §1

human IL-33 WT (R&D) = biological target: T5, human IL-33 WT (R&D) (human, UniProt O95760 112-270); experiment: SPR, Fab captured by anti-human Fab kit, reduced IL-33 (R&D) in solution; captured Fab, reduced WT IL-33 in solution
T5 construct: R&D Systems Cat. No. 3625-IL/CF, wild-type cysteines; DTT pretreatment in some assays is said under assay or readout; also called IL-33 (R&D); hIL-33 (R&D)
T5 sequence: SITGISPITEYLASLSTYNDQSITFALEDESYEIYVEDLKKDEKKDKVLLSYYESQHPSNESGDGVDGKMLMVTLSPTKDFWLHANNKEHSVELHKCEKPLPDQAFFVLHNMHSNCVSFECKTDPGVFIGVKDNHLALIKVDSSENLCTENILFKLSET

Kd (human IL-33 (mm2)): 3.06 pM
koff (human IL-33 (mm2)): 1.68e-05 s⁻¹
binding result (IL-18): no binding
binding result (IL-36α): no binding
binding result (IL-36γ): no binding
kon (human IL-33 WT (R&D)): 2.06e+06 M⁻¹ s⁻¹
B1: 7E8 CDR graft Fab (Fab, V domains shown)
VH: EVQLVESGGGLVQPGGSLRLSCAASGFTFSSYWMYWVRQAPGKGLEWVASITPNGGNTYYPDSVKGRFTISRDNAKNSLYLQMNSLRAEDTAVYYCARGHYYYTSYSLGYWGQGTLVTVSS
VL: DIQMTQSPSSLSASVGDRVTITCKASQNINKHLDWYQQKPGKAPKLLIYFTNNLQTGVPSRFSGSGSGTDFTLTISSLQPEDFATYYCFQYNNGWTFGGGTKVEIKR
notes: also called 7E8 Fab; CDR grafted-7E8 Fab
